Measurements reported in paper PMC11611905, “Recruitment of autophagy initiator TAX1BP1 advances aggrephagy from cargo collection to sequestration” (The EMBO Journal, 2024).

Tests used:
Conditions in all cases: both partners purified
GFP-NBR1 (purified) = target: T1, GFP-NBR1 (purified) (UniProt Q14596 1-966); experiment: microscopy-based protein interaction assay; GST-TAX1BP1 (FL, N-domain, point mutants; 2.5 µM) as bait on GSH beads, 1 µM GFP-NBR1 as prey; SEC buffer (25 mM HEPES pH 7.5, 150 mM NaCl, 1 mM DTT); 15-30 min at RT; confocal imaging of the beads
T1 construct: NBR1; source: HEK293 (pCAGGSsH-C vector, VBCF ProTech facility), purified; not shown: GFP, N-terminal, kept
T1 sequence (looked up): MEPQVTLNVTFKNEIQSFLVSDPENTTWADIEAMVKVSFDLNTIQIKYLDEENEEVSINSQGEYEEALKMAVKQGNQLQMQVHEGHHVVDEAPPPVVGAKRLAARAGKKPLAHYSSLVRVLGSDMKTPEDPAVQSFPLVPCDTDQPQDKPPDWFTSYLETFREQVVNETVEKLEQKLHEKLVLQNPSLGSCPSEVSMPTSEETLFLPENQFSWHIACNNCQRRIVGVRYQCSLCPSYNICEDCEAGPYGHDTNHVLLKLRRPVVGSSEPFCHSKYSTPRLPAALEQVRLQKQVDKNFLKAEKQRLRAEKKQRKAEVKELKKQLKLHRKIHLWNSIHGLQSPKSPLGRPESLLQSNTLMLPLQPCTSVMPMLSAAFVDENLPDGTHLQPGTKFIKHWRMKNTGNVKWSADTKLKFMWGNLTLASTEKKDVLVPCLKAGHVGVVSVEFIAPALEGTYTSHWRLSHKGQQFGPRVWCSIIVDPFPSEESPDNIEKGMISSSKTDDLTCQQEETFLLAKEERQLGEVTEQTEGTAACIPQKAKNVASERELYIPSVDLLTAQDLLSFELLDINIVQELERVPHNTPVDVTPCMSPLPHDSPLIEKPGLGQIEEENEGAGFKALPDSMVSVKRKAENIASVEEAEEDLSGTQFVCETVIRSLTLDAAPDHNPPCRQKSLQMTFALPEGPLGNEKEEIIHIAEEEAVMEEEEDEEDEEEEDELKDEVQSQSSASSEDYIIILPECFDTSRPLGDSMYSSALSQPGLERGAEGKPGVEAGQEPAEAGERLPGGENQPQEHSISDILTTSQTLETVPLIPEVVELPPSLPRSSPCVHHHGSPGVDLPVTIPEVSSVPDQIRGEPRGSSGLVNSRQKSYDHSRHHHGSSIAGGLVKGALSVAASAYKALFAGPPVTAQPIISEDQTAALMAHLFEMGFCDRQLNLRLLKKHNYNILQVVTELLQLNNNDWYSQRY

10x-His-GFP-TAX1BP1 = target: T2, 10x-His-GFP-TAX1BP1 (UniProt Q86VP1 1-789); experiment: peptide or protein array; entire NBR1 sequence spotted as 12 aa peptides on a membrane; GFP-TAX1BP1 at 50 µg/ml in SEC buffer, 2 h at RT; detection by western blot
T2 construct: TAX1BP1, full-length (FL); also called GFP-TAX1BP1 FL; recombinant TAX1BP1; source: Sf9 insect cells (pLIB vector, baculovirus), purified; not shown: GFP, N-terminal, kept
T2 sequence (Q86VP1 whole entry): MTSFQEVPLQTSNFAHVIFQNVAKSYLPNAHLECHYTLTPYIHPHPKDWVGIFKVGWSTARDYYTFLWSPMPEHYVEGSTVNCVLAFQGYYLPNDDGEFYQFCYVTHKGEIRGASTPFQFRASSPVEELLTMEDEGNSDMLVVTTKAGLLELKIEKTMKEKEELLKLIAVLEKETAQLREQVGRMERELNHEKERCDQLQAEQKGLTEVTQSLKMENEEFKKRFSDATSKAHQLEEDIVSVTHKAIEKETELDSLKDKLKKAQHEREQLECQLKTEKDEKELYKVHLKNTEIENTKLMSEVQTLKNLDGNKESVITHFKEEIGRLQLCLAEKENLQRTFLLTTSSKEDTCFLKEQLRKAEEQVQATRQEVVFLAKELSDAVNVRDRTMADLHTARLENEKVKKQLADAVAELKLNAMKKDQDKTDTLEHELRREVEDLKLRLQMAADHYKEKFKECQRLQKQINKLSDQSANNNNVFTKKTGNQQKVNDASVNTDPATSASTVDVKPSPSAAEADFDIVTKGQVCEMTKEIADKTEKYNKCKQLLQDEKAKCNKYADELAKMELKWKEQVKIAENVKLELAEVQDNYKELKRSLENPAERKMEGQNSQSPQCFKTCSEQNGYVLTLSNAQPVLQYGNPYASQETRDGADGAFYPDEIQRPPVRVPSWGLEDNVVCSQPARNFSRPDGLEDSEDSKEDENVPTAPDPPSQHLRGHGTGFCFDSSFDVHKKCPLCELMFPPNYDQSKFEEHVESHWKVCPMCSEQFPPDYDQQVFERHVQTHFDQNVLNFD

10x-His-mCherry-TAX1BP1 = target: T3, 10x-His-mCherry-TAX1BP1 (UniProt Q86VP1 1-789); experiment: microscopy-based protein interaction assay; mCherry-TAX1BP1 on RFP-trap beads, GFP-tagged NBR1 fragment CC2-LIR1 as prey
T3 construct: TAX1BP1, full-length (FL); also called mCh-TAX1BP1; mCherry-TAX1BP1 FL; source: Sf9 insect cells (pLIB vector, baculovirus), purified; not shown: mCherry, N-terminal, kept
T3 sequence (Q86VP1 whole entry, the tested form may be a part): as the sequence (Q86VP1 whole entry) above

B1: GST-N-domain (aa420-506 of TAX1BP1) (domain or fragment, UniProt Q86VP1 420-506, looked up)
chain: DQDKTDTLEHELRREVEDLKLRLQMAADHYKEKFKECQRLQKQINKLSDQSANNNNVFTKKTGNQQKVNDASVNTDPATSASTVDVK
B1: binds (GFP-NBR1 (purified)).

B2: NBR1 peptides of binding region 1 (aa347-aa365) (peptide, UniProt Q14596 347-365, looked up)
peptide: RPESLLQSNTLMLPLQPCT
notes: NBR1 aa347-365, covered by overlapping 12 aa spots of the peptide array; also called parts of the FW domain; source: synthetic peptides spotted on a membrane (Peptide Synthesis facility of the IMP)
B2: binds (10x-His-GFP-TAX1BP1).

B3: GFP-CC2-LIR1 (NBR1 aa685-aa757) (domain or fragment, UniProt Q14596 685-757, looked up)
chain: LGNEKEEIIHIAEEEAVMEEEEDEEDEEEEDELKDEVQSQSSASSEDYIIILPECFDTSRPLGDSMYSSALSQ
notes: the methods name the purified protein GST-GFP-CC2-LIR1 and give two ways of elution (TEV cleavage or glutathione) without saying which was used; also called GST-GFP-CC2-LIR1; source: E. coli Rosetta pLysS, purified (GSH beads, SEC); not shown: GFP, N-terminal, kept
B3: binds (10x-His-mCherry-TAX1BP1).

B4: NBR1 peptides of binding region 2 (aa731-aa749) (peptide, UniProt Q14596 731-749, looked up)
peptide: DYIIILPECFDTSRPLGDS
notes: NBR1 aa731-749, covered by overlapping 12 aa spots of the peptide array; source: synthetic peptides spotted on a membrane (Peptide Synthesis facility of the IMP)
B4: binds (10x-His-GFP-TAX1BP1).
